Paper PMC4137731, “C-Terminal Domain Swapping of SSB Changes the Size of the ssDNA Binding Site”

B1: dT20 (ssDNA)
DNA: TTTTTTTTTTTTTTTTTTTT
B2: dT65 (ssDNA)
DNA: TTTTTTTTTTTTTTTTTTTTTTTTTTTTTTTTTTTTTTTTTTTTTTTTTTTTTTTTTTTTTTTTT
B3: dT60 (ssDNA)
DNA: TTTTTTTTTTTTTTTTTTTTTTTTTTTTTTTTTTTTTTTTTTTTTTTTTTTTTTTTTTTT
B4: dT25 (ssDNA)
DNA: TTTTTTTTTTTTTTTTTTTTTTTTT
B5: dT30 (ssDNA)
DNA: TTTTTTTTTTTTTTTTTTTTTTTTTTTTTT
B6: dT15 (ssDNA)
DNA: TTTTTTTTTTTTTTT
B7: dT45 (ssDNA)
DNA: TTTTTTTTTTTTTTTTTTTTTTTTTTTTTTTTTTTTTTTTTTTTT
B8: dT35 (ssDNA)
DNA: TTTTTTTTTTTTTTTTTTTTTTTTTTTTTTTTTTT
B9: dT50 (ssDNA)
DNA: TTTTTTTTTTTTTTTTTTTTTTTTTTTTTTTTTTTTTTTTTTTTTTTTTT
B10: dT55 (ssDNA)
DNA: TTTTTTTTTTTTTTTTTTTTTTTTTTTTTTTTTTTTTTTTTTTTTTTTTTTTTTT
B11: dT40 (ssDNA)
DNA: TTTTTTTTTTTTTTTTTTTTTTTTTTTTTTTTTTTTTTTT

What was measured:
Details in all cases: protein: recombinant; tags: none (untagged); chain copies: 4; label: 5' 32P
StSSB [1] = molecular target: T1, StSSB (Salmonella enterica serovar Typhimurium …, UniProt P0A2F6 1-176); experiment: EMSA; monomer conc.; 1 complex; 20 mM Tris-HCl pH 8.0, 100 mM NaCl, 25°C 30 min, 1.7 nM DNA, protein 0-5000 nM; native 8% PAGE in TBE at 4°C
KpSSB [2] = molecular target: T2, KpSSB (Klebsiella pneumoniae subsp. pneumoniae …, UniProt A6TGW7 1-174); experiment: EMSA; no band shift up to 5000 nM; 20 mM Tris-HCl pH 8.0, 100 mM NaCl, 25°C 30 min, 1.7 nM DNA, protein 0-5000 nM; native 8% PAGE in TBE at 4°C
PaSSB [3] = molecular target: T3, PaSSB (Pseudomonas aeruginosa PAO1, UniProt P40947 1-165); experiment: EMSA; monomer conc.; 2 complexes; 20 mM Tris-HCl pH 8.0, 100 mM NaCl, 25°C 30 min, 1.7 nM DNA, protein 0-5000 nM; native 8% PAGE in TBE at 4°C
KpSSB [4] = molecular target: T2, KpSSB; experiment: as above
KpSSB [5] = molecular target: T2, KpSSB; experiment: EMSA; monomer conc.; 1 complex; 20 mM Tris-HCl pH 8.0, 100 mM NaCl, 25°C 30 min, 1.7 nM DNA, protein 0-5000 nM; native 8% PAGE in TBE at 4°C
PaSSB [6] = molecular target: T3, PaSSB; experiment: as above
StSSB [7] = molecular target: T1, StSSB; experiment: EMSA; monomer conc.; 2 complexes; 20 mM Tris-HCl pH 8.0, 100 mM NaCl, 25°C 30 min, 1.7 nM DNA, protein 0-5000 nM; native 8% PAGE in TBE at 4°C

Binder | apparent K (half saturation) (StSSB [1]) [nM] | apparent K (half saturation) (KpSSB [5]) [nM] | apparent K (half saturation) (PaSSB [6]) [nM] | other results
B1 | 450 ± 80 | – | – | binding result (KpSSB [2]): no binding
B2 | – | – | – | apparent K (half saturation) (PaSSB [3]): 550 ± 70 nM
B3 | – | – | – | apparent K (half saturation) (KpSSB [4]): 100 ± 10 nM; apparent K (half saturation) (PaSSB [3]): 810 ± 110 nM
B4 | – | 200 ± 20 | 1700 ± 250 | –
B5 | 420 ± 60 | – | – | –
B6 | 650 ± 120 | – | – | –
B7 | – | 100 ± 10 | 780 ± 160 | apparent K (half saturation) (StSSB [7]): 440 ± 60 nM
B8 | – | 220 ± 30 | 950 ± 180 | –
B9 | – | 110 ± 20 | – | apparent K (half saturation) (StSSB [7]): 440 ± 50 nM
B10 | – | – | 820 ± 90 | apparent K (half saturation) (KpSSB [4]): 100 ± 20 nM
B11 | 420 ± 80 | – | – | –
